# In paper PMC9016351:
# Biological target: RA‐BAX (UniProt Q07812)
# Experiment: ddFP assay in cells (confocal microscopy)
# Details: U2OS BAX/BAK DKO cells, 3 h after apoptosis induction; n = 3 independent experiments (n = 100 cells each); parent: est. 28; read off a plot
# UniProt Q07812, sequence (Q07812 whole entry): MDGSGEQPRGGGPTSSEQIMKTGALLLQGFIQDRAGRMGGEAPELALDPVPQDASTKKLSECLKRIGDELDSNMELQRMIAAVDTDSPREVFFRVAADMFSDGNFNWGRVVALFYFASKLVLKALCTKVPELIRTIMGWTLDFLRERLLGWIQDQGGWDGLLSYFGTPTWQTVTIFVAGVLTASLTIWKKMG
row,response [%],Substance
1,27,GB‐DRP1 D221A
2,35,GB‐DRP1 K557R; K560R; K569R; K571R
3,33,GB‐DRP1 K642E

# More lines, now with the values behind:
row,Substance,response [%]
1,GB‐DRP1 K38A,24
2,GB‐DRP1 R376E,34

# Biological target: GB‐DRP1
# Experiment: ddFP assay in cells (confocal microscopy)
# Details: U2OS BAX/BAK DKO cells, 3 h after apoptosis induction; n = 3 independent experiments (n = 100 cells each); parent: est. 21; read off a plot
row,response [%],Substance
1,15,RA‐BAX (from UniProt Q07812) G67R
2,3,RA‐BAX (from UniProt Q07812) G67R; S184V
3,31,RA‐BAX (from UniProt Q07812) K21E
4,22,RA‐BAX (from UniProt Q07812) K57E
5,38,RA‐BAX (from UniProt Q07812) L59C
6,7.5,RA‐BAX (from UniProt Q07812) S184V

# The remaining lines, values behind:
row,Substance,response [%]
1,RA‐BAX (from UniProt Q07812) G40E,15
2,RA‐BAX (from UniProt Q07812) K21E; R134E,26
3,RA‐BAX (from UniProt Q07812) K58E,21
4,RA‐BAX (from UniProt Q07812) L63E,0
5,RA‐BAX (from UniProt Q07812) R134E,19
